Biological target: Tau (2N4R Tau; Tau(291–391)) 2-441 (UniProt P10636)
Assay: solid-phase ELISA, immobilised fragment, soluble Tau
Settings: reference: unmodified (WT) Tau(291–391)

Tau (2N4R Tau; Tau(291–391)) 291-391 (from UniProt P10636-8) pS352 Tau(291–391)
binding against the reference (sites S352): weaker

Tau (2N4R Tau; Tau(291–391)) 291-391 (from UniProt P10636-8) pS305 Tau(291–391)
binding against the reference (sites S305): weaker

Tau (2N4R Tau; Tau(291–391)) 291-391 (from UniProt P10636-8) pS356 Tau(291–391)
binding against the reference (sites S356): weaker
